How the values were obtained:
[1] = biological target: T1, human MICA/B endogenously expressed on RPMI-8226 cells (human, UniProt Q29983 24-383); test: flow cytometry, tumor cells with endogenous MICA/B
T1 construct: whole, on cells
T1 sequence (looked up): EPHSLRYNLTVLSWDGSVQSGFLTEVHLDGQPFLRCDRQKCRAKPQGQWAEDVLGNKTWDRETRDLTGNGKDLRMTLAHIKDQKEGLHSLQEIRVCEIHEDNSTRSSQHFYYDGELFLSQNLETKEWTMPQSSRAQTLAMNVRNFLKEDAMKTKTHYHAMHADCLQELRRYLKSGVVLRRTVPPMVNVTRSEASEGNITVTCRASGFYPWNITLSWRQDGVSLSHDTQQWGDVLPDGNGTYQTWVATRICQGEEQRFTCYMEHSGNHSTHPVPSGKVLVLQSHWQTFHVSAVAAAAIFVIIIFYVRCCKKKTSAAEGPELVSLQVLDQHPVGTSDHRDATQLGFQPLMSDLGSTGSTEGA
Protocol: Serial dilutions of MICA.36-IgG1-NF-G236A mAb were incubated with CHO cells transduced with human MICA/B common alleles or human tumor cell lines that endogenously express MICA/B. Cells were then washed twice, and cell bound antibodies were detected using a secondary anti-human antibody conjugated with a fluorophore. Flow cytometric analyses were performed using a FACSCantoII or FACS Fortessa X-20 flow cytometer. The geometric mean fluorescence intensity of MICA.36-IgG1-NF-G236A mAb bound to cells was determined using FlowJo analysis software. Dose-response curves were generated and EC50s calculated using Prism software.
MICA.36-IgG1-NF-G236A bound to endogenously expressed MICA/B on a variety of human tumor cell lines (FIG. 8B).

[2] = biological target: T2, human MICA/B endogenously expressed on 786-O cells (MICA allele *008) (human, UniProt Q29983 24-331); test: cell-based or functional assay
T2 chain: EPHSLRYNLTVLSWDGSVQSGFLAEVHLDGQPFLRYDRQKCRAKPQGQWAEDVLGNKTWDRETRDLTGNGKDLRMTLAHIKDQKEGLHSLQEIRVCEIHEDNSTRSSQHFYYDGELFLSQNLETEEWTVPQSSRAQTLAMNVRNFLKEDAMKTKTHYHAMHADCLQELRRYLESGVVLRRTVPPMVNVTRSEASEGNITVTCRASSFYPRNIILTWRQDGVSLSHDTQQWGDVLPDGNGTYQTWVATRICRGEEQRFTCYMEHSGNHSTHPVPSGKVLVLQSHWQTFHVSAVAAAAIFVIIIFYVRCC

[3] = biological target: T3, human MICA/B endogenously expressed on HeLa cells (MICA allele *008) (human, UniProt Q29983 24-331); test: cell-based or functional assay
T3 chain: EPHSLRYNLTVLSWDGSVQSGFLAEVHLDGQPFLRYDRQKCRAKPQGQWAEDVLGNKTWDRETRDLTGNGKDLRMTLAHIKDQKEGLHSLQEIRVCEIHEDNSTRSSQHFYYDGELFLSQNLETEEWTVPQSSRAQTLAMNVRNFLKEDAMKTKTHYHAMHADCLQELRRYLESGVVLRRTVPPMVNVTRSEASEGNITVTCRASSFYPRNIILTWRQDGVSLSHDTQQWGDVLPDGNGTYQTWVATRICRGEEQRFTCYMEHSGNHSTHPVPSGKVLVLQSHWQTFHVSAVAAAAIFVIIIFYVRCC

[4] = biological target: T4, human MICB expressed on transduced cells (human, UniProt Q29980 23-382); test: cell-based or functional assay
T4 chain: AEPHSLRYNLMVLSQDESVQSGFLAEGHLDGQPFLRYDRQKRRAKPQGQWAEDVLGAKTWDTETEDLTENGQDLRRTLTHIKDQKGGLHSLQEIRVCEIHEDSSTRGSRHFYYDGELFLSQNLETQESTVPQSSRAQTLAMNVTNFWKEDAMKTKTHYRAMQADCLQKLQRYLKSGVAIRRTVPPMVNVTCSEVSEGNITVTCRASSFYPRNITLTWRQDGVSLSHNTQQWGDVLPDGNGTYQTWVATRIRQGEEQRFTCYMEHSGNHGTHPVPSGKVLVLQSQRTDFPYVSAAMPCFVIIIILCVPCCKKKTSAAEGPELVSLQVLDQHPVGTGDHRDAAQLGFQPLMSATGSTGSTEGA

[5] = biological target: T2, human MICA/B endogenously expressed on …; test: flow cytometry, tumor cells with endogenous MICA/B (column Binding EC50)
[6] = biological target: T3, human MICA/B endogenously expressed on …; test: as above
[7] = biological target: T5, recombinant soluble human MICA*009 antigen (human, UniProt Q29983 24-307); test: SPR (Biacore T200, 37 C), antibody captured on anti-human Fc, antigen 100 and 10 nM
T5 construct: also called huIMICA-his allele *009
T5 chain: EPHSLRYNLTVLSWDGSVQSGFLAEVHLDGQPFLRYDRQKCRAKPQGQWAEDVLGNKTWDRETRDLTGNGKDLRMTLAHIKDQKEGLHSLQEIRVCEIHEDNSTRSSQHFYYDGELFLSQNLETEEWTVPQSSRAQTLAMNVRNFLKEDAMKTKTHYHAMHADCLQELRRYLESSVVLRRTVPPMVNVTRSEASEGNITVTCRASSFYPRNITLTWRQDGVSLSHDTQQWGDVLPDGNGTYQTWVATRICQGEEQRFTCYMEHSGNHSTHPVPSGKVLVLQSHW
Protocol: (§1) Anti-MICA/B antibodies were captured to α-human Fc surfaces. MICA allele antigens were injected at high and low nanomolar concentrations (500 nM and 50 nM, except indicated otherwise). The results for antibodies MICA.36 and MICA.38 (MICA.2 with a Ser inserted between residues 95 and 96 in the light chain) are shown in Table 2 below.

[8] = biological target: T6, recombinant soluble human MICA*004 antigen (human, UniProt Q29983 24-307); test: as above
T6 construct: also called huIMICA-his allele *004
T6 chain: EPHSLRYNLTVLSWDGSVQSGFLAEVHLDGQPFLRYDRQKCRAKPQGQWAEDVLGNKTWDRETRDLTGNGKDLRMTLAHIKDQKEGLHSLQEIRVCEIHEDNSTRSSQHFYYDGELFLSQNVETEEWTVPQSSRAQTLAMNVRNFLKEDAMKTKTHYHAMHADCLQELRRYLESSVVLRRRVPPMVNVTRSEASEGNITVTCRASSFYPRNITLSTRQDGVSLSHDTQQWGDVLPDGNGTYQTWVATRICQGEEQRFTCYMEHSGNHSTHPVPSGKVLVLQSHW
Protocol: as §1

[9] = biological target: T7, recombinant soluble human MICA*008 antigen (human, UniProt Q29983 24-307); test: as above
T7 construct: also called huIMICA-his allele *008; recombinant soluble MICA (allele 8)
T7 chain: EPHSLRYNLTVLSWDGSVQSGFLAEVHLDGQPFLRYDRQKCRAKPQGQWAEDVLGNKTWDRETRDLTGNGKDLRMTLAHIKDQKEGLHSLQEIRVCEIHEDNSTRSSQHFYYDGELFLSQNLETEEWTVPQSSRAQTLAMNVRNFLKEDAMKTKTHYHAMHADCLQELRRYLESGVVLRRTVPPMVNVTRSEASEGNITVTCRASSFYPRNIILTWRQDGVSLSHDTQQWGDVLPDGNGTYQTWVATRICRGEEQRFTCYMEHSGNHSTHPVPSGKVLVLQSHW
Protocol: as §1

[10] = biological target: T5, recombinant soluble human MICA*009 …; test: SPR (Biacore T200, 37 C), antibody captured on anti-human Fc, antigen 500 and 50 nM
Protocol: as §1

[11] = biological target: T8, recombinant soluble human MICA*002 antigen (human, UniProt Q29983 24-307); test: as above
T8 construct: also called huIMICA-his allele *002
T8 chain: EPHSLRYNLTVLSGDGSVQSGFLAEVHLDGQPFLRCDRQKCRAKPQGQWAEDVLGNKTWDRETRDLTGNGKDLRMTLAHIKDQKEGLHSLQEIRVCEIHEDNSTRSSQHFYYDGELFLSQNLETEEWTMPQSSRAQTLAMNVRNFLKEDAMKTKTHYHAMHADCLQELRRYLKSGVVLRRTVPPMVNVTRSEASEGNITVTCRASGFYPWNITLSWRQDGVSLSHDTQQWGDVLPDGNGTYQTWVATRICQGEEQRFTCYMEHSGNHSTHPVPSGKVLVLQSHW
Protocol: as §1

[12] = biological target: T6, recombinant soluble human MICA*004 …; test: as above
Protocol: as §1

[13] = biological target: T7, recombinant soluble human MICA*008 …; test: as above
Protocol: as §1

[14] = biological target: T5, recombinant soluble human MICA*009 …; test: SPR (Biacore T200, 37 C), antibody captured on anti-human Fc, range over both antigen concentration sets
Protocol: as §1

[15] = biological target: T6, recombinant soluble human MICA*004 …; test: as above
Protocol: as §1

[16] = biological target: T7, recombinant soluble human MICA*008 …; test: as above
Protocol: as §1

B1: MICA.36-IgG1-NF-G236A (antibody)
heavy: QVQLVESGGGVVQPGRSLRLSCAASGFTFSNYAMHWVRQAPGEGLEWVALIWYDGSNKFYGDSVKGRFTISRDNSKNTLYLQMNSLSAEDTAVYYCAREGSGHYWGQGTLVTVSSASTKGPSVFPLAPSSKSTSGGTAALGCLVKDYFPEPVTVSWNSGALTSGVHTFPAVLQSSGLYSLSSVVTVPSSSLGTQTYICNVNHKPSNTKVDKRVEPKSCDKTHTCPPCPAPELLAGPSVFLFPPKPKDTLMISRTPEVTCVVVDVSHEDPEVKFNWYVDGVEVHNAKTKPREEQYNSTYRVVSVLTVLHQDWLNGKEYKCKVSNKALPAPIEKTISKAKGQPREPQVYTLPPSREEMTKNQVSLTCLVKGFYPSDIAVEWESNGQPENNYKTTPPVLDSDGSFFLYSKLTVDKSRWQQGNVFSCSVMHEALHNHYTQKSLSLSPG
light: AIQLTQSPSSLSASVGDRVTITCRASQGISSALAWYQQKPGKVPKSLIYDASSLESGVPSRFSGSGSGTDFTLTISSLQPEDFATYYCQQFNSYPITFGQGTRLEIKRTVAAPSVFIFPPSDEQLKSGTASVVCLLNNFYPREAKVQWKVDNALQSGNSQESVTEQDSKDSTYSLSSTLTLSKADYEKHKVYACEVTHQGLSSPVTKSFNRGEC
modifications: non-fucosylated (expressed in FUT8-knock-out CHO cells)
notes: Human IgG1 with G236A (EU numbering); also called MICA.36 NF G236A; MICA.36-NF-G236A
**Q.** What does the source list for B1?
**A.** EC50 [1]: 3.9 nM; Fold increase in surface MICA [2]: 1.47 fold; MICA retention EC50 [2]: 0.057 nM; Reduction in sMICA EC50 [2]: 0.14 nM; Fold increase in surface MICA [3]: 1.43 fold; MICA retention EC50 [3]: 0.032 nM; Reduction in sMICA EC50 [3]: 0.1 nM; OT-I CD8+ T cell proliferation (antigen cross-presentation) EC50 [4]: 1.6 nM; antibody dependent cellular phagocytosis (ADCP) EC50 [4]: 10.7 nM; EC50 [5]: 1.37 nM; EC50 [6]: 1.76 nM

B2: MICA.36 hIgG1 (antibody)
heavy: not shown
light: AIQLTQSPSSLSASVGDRVTITCRASQGISSALAWYQQKPGKVPKSLIYDASSLESGVPSRFSGSGSGTDFTLTISSLQPEDFATYYCQQFNSYPITFGQGTRLEIKRTVAAPSVFIFPPSDEQLKSGTASVVCLLNNFYPREAKVQWKVDNALQSGNSQESVTEQDSKDSTYSLSSTLTLSKADYEKHKVYACEVTHQGLSSPVTKSFNRGEC
notes: Recombinant form of hybridoma 19G6 with wild type human IgG1 (236G), fucosylated; also called MICA.36hIgGl; MICA.36 IgG1
**Q.** What does the source list for B2?
**A.** koff [7]: 0.000642 s⁻¹; kon [7]: 54100 M⁻¹ s⁻¹; koff [8]: 0.000637 s⁻¹; kon [8]: 46200 M⁻¹ s⁻¹; koff [9]: 0.000606 s⁻¹; kon [9]: 120000 M⁻¹ s⁻¹; koff [10]: 0.000603 s⁻¹; kon [10]: 70100 M⁻¹ s⁻¹; Kd [11]: > 250 nM; koff [11]: 0.0161 s⁻¹; kon [11]: 28600 M⁻¹ s⁻¹; koff [12]: 0.000591 s⁻¹; kon [12]: 95200 M⁻¹ s⁻¹; koff [13]: 0.000565 s⁻¹; kon [13]: 140000 M⁻¹ s⁻¹; Kd [14]: 8.6 to 11.9 nM; Kd [15]: 6.2 to 13.8 nM; Kd [16]: 4 to 5.1 nM

— US20220281980A1 (Bristol-Myers Squibb, published 2022)
